Experiments:
[1] = molecular target: Human MLH1 C-terminal domain (amino acids 486 to 756) (human) (UniProt P40692); test: ITC
[2] = molecular target: recombinant MutLα (MLH1-PMS2) (human, UniProt P40692;P54278); test: pull-down
recombinant MutLα (MLH1-PMS2), sequence (P40692 whole entry, chain 1 of 2): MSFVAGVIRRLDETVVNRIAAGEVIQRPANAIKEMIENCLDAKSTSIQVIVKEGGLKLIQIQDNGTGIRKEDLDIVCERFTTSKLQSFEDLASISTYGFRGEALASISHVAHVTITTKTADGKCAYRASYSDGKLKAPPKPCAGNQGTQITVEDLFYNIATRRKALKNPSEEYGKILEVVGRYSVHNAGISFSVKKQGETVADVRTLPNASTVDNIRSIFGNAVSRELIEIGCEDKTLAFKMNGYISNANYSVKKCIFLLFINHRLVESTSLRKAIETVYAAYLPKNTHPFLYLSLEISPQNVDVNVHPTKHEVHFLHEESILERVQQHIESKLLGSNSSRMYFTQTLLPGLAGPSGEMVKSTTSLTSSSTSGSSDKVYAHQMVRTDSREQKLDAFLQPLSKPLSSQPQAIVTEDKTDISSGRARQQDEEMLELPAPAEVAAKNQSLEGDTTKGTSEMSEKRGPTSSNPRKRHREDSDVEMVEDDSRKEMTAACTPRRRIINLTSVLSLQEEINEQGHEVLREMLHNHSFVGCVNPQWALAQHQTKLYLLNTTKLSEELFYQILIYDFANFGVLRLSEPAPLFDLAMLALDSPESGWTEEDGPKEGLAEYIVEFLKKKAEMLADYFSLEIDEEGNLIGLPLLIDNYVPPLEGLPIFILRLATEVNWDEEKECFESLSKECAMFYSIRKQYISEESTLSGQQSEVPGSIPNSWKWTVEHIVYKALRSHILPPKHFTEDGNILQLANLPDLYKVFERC
recombinant MutLα (MLH1-PMS2), sequence (P54278 whole entry, chain 2 of 2): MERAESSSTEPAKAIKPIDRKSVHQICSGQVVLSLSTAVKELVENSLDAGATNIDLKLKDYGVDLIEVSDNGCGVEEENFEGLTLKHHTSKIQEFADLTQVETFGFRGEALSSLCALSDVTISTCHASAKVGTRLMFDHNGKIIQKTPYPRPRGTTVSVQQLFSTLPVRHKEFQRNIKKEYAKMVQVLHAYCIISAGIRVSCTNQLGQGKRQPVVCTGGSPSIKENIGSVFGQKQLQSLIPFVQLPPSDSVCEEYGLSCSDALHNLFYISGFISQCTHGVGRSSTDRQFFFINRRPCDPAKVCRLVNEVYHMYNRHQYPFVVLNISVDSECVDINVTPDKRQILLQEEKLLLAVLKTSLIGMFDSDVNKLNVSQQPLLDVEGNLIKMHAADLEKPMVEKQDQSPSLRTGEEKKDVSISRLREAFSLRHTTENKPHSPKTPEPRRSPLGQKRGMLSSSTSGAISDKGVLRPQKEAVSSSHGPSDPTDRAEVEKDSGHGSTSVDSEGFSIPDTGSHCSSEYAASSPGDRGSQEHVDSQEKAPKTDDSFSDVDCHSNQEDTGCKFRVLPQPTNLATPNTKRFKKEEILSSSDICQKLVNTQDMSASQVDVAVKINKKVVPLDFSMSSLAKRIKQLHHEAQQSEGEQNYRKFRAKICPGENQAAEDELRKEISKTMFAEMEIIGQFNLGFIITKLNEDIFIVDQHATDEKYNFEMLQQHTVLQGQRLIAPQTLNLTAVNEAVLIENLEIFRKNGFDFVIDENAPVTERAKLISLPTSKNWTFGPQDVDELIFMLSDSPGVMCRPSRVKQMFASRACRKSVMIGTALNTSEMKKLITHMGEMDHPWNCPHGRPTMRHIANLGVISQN

Human MLH1 C-terminal domain (amino acids 486 to 756) (human), sequence (P40692 486-756): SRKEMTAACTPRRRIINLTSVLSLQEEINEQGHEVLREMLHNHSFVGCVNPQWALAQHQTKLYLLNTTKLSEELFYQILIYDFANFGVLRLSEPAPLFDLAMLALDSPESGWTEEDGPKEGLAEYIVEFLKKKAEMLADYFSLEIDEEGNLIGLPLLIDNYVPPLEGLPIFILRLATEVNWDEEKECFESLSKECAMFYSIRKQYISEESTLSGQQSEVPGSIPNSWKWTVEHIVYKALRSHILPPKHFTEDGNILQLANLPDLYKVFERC

Molecule	Kd [1] [µM]	binding result [2]
FAN1 MIM 12-mer peptide (wt)	3.2	–
FAN1 MIP 8-mer peptide (wt)	2.8	–
FAN1-derived 42-mer peptide containing MIP and MIM (wt)	0.07	–
GST-FAN1 (amino acids 118 to 177) (domain or fragment) KREVKQKISPYFKSNDVVCKNQDELRNRSVKVICLGSLASKLSRKYVKAKKSIDKDEEFA	–	binds

From PMC8324060 (Science Advances, 2021)
